Experimental data as given in publication PMC10532153 (2023).

T1: Sos-S2 peptide (Drosophila melanogaster, UniProt P26675)
T1 chain: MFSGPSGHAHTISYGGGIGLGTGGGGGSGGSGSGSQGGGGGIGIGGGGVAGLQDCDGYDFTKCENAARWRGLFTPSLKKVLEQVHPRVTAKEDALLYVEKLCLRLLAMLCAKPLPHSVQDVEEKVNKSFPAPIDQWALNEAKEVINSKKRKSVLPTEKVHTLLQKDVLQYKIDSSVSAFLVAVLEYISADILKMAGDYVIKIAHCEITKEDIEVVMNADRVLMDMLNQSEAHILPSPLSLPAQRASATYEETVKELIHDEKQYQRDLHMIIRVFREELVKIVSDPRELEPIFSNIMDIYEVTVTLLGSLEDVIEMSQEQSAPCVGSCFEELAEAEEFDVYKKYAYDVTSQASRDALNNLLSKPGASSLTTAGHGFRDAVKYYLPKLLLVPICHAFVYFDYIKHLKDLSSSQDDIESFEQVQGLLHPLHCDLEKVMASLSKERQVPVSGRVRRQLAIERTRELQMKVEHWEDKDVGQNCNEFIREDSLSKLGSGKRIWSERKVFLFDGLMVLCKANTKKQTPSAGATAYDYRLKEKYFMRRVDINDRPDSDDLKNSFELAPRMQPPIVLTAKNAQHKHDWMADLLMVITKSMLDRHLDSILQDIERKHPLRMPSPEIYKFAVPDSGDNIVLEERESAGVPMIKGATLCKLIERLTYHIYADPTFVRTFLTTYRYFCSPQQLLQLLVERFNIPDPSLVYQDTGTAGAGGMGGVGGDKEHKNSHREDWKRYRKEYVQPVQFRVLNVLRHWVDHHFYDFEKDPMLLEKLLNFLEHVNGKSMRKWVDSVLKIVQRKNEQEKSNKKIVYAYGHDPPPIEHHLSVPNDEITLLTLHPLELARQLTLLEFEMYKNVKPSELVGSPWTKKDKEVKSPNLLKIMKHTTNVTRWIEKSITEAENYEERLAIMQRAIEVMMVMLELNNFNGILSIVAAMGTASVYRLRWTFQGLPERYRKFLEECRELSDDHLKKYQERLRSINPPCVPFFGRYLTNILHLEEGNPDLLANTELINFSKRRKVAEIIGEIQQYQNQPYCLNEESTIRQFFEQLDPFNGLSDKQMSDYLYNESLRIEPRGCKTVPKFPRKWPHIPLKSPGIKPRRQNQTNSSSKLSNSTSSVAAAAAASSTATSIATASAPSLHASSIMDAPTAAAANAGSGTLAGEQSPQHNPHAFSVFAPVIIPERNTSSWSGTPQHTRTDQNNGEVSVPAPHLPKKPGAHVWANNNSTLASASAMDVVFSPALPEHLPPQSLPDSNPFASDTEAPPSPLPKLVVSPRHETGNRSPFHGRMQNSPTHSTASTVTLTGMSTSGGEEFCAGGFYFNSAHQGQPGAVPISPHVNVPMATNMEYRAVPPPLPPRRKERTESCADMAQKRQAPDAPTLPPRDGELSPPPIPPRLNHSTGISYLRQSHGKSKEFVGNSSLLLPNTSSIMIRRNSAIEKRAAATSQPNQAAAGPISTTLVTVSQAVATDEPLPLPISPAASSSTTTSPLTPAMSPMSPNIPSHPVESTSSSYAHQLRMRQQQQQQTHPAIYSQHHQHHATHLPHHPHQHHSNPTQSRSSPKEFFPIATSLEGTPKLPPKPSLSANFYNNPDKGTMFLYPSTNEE

T2: Sos-S1 peptide (Drosophila melanogaster, UniProt P26675)
T2 chain: T1 chain

B1: Drk NSH3 (protein)
chain: MEAIAKHDFSATADDELSFRKTQILKILNMEDDSNWYRAELDGKEGLIPSNYIEMKNH
B2: Drk CSH3 (protein)
chain: PEEMLVQALYDFVPQESGELDFRRGDVITVTDRSDENWWNGEIGNRKGIFPATYVTPYHS

What was measured:
Sos-S2 peptide = target: T1, Sos-S2 peptide; experiment: NMR titration
Sos-S1 peptide = target: T2, Sos-S1 peptide; experiment: NMR titration

| Binder | Kd (Sos-S2 peptide) [µM] | Kd (Sos-S1 peptide) [µM] |
| --- | --- | --- |
| B1 | ~41 | ~13 |
| B2 | – | ~160 |
